{"source": "patent US20050143559", "key": {"[1]": {"test_system": "tryparedoxin peroxidase isolated from Crithidia fasciculata"}, "[2]": {"target": "tryparedoxin peroxidase isolated from Crithidia fasciculata", "remark": "listed apart in the source"}}, "note": "Like-named read-outs stand apart in the source and are kept apart here.", "data": [{"molecule": "authentic tryparedoxin I isolated from Crithidia fasciculata", "values": [{"measurement": "specific activity (coupled NADPH consumption assay)", "setting": "[1]", "value": "2.3 U/mg for the authentic enzyme"}]}, {"molecule": "TQSLPSSFLASLEHHHHHH", "note": "[recombinant tryparedoxin II containing a His tag (expressed from pET/TXN II H6 in E. coli BL21(DE3))]", "values": [{"measurement": "specific activity (coupled NADPH consumption assay)", "setting": "[2]", "value": 7.7, "unit": "U/mg"}]}]}
